The source of these data is PMC2801713 (Molecular Biology of the Cell, 2010).

In the experiment the target is GFP-WIP (wild type) (human, UniProt O43516 1-503). Nature of the experiment: far-Western, overlay or dot blot.
Sequence of GFP-WIP (wild type) (O43516 whole entry): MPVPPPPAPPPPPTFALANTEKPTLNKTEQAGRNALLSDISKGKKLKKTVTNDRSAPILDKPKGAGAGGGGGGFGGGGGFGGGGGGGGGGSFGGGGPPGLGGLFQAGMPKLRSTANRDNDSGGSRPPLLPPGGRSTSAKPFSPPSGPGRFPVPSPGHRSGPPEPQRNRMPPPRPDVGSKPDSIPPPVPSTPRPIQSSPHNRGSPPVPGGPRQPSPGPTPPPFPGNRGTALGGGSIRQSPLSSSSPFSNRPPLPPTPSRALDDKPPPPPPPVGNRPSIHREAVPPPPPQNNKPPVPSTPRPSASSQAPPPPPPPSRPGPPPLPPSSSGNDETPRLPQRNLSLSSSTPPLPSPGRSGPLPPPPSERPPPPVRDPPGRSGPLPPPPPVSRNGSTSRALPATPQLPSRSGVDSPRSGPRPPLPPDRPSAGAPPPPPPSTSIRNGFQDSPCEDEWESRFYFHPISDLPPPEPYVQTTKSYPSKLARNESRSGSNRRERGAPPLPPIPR

B1: His-mAbp1-GST (natural protein, mouse, UniProt Q62418 1-436, looked up)
chain: MAVNLSRNGPALQEAYVRVVTEKSPTDWALFTYEGNSNDIRVAGTGEGGLEELVEELNSGKVMYAFCRVKDPNSGLPKFVLINWTGEGVNDVRKGACANHVSTMANFLKGAHVTINARAEEDVEPECIMEKVAKASGANYSFHKESTSFQDVGPQAPVGSVYQKTNAISEIKRVGKDNFWAKAEKEEENRRLEEKRRAEEERQRLEEERRERELQEAARREQRYQEQHRSAGAPSPSSRTGEPEQEAVSRTRQEWESAGQQAPHPREIFKQKERAMSTTSVTSSQPGKLRSPFLQKQLTQPETSYGREPTAPVSRPAAGVCEEPAPSTLSSAQTEEEPTYEVPPEQDTLYEEPPLVQQQGAGSEHIDNYMQSQGFSGQGLCARALYDYQAADDTEISFDPENLITGIEVIDEGWWRGYGPDGHFGMFPANYVELIE
Turning to B1, the binding result was “binds”.
